The source of these data is patent US20150232557A1 (APTEVO RESEARCH AND DEVELOPMENT, published 2015).

Experiment [1] addresses T1, CD3 (human, UniProt P07766 23-207).
T1 construct: whole, on cells; CD3 is a multi-chain complex; also called CD3 on T-cells; CD3 on Jurkat (CD3+) T cell leukemia cells
In words: flow cytometry on Jurkat (CD3+) cells, goat anti-human IgG-FITC detection. As to the method:
Jurkat (CD3⁺) T cell leukemia cells were obtained from ATCC (Manassas, Va.), and cultured according to the protocol provided by ATCC. Binding was assessed by incubating 5×10⁵ Jurkat cells for 30 minutes at 4° C. with serially diluted bispecific molecules TSC228 or TSC249, in concentrations from 250 nM to 0.125 nM (TSC249) or 125 nM to 1 pM (TSC228). The cells were washed three times and then incubated with goat anti-human IgG-FITC (1:200 dilution) for another 30 minutes at 4° C. The cells were then washed again three times, fixed in 1% paraformaldehyde and read on a FACS-Calibur instrument.

For experiment [2], the target named is T1, CD3. The experiment can be described thus: cell-based or functional assay.

T1 sequence (P07766 23-207): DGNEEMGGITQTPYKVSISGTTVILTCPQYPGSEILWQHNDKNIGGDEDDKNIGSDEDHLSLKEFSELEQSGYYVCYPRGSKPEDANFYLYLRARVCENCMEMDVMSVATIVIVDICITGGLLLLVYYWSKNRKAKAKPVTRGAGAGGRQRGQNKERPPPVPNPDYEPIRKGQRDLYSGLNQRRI

B1: TSC228 (HD37 x DRA222 scFv heterodimer) (bispecific antibody)
chain 1: DIVLTQSPASLAVSLGQRATISCKASQSVDYDGDSYLNWYQQIPGQPPKLLIYDASNLVSGIPPRFSGSGSGTDFTLNIHPVEKVDAATYHCQQSTEDPWTFGGGTKLEIKGGGGSGGGGSGGGGASQVQLQQSGAELVRPGSSVKISCKASGYAFSSYWMNWVKQRPGQGLEWIGQIWPGDGDTNYNGKFKGKATLTADESSSTAYMQLSSLASEDSAVYFCARRETTTVGRYYYAMDYWGQGTSVTVSSSEPKSSDKTHTCPPCPAPEAAGAPSVFLFPPKPKDTLMISRTPEVTCVVVDVSHEDPEVKFNWYVDGVEVHNAKTKPREEQYNSTYRVVSVLTVLHQDWLNGKAYACAVSNKALPAPIEKTISKAKGQPREPQVYTLPPSRDELTKNQVSLTCLVKGFYPSDIAVEWESNGQPENNYKTTPPVLDSDGSFFLYSKLTVDKSRWQQGNVFSCSVMHEALHNHYTQKSLSLSPGKSRASTKGPSVFPLAPSSKSTSGGTAALGCLVKDYFPEPVTVSWNSGALTSGVHTFPAVLQSSGLYSLSSVVTVPSSSLGTQTYICNVNHKPSNTKVDKKV
chain 2: QVQLVESGGGVVQPGRSLRLSCKASGYTFTRSTMHWVRQAPGQGLEWIGYINPSSAYTNYNQKFKDRFTISADKSKSTAFLQMDSLRPEDTGVYFCARPQVHYDYNGFPYWGQGTPVTVSSGGGGSGGGGSGGGGSAQDIQMTQSPSSLSASVGDRVTMTCSASSSVSYMNWYQQKPGKAPKRWIYDSSKLASGVPARFSGSGSGTDYTLTISSLQPEDFATYYCQQWSRNPPTFGGGTKLQITSSSEPKSSDKTHTCPPCPAPEAAGAPSVFLFPPKPKDTLMISRTPEVTCVVVDVSHEDPEVKFNWYVDGVEVHNAKTKPREEQYNSTYRVVSVLTVLHQDWLNGKAYACAVSNKALPAPIEKTISKAKGQPREPQVYTLPPSRDELTKNQVSLTCLVKGFYPSDIAVEWESNGQPENNYKTTPPVLDSDGSFFLYSKLTVDKSRWQQGNVFSCSVMHEALHNHYTQKSLSLSPGKSRTVAAPSVFIFPPSDEQLKSGTASVVCLLNYFYPREAKVQWKVDNALQSGNSQESATEQDSKDSTYSLSSELTLSKADYEKHKVYACEVTHQGLSSPVTKSFNRGE
notes: TSC049 is HD37 scFv-hinge-CH2-CH3-CH1; TSC222 is DRA222 scFv-hinge-CH2-CH3-CK(YAE); also called anti-CD19 x anti-CD3 bispecific polypeptide heterodimer; TSC049 + TSC222
As to B1, the 50% effective concentration (EC50) in experiment [1] was determined as 24.5 nM.

B2: humanized TSC249 Scorpion (huVL-VH#2 107-1A4 scFv-Fc-DRA222 scFv) (bispecific antibody)
chain: DIQMTQSPSAMSASVGDRVTITCRASKSISKYLAWFQQKPGKVPKLRIHSGSTLQSGVPSRFSGSGSGTEFTLTISSLQPEDFATYYCQQHIEYPWTFGQGTKVEIKRGGGGSGGGGSGGGGSQVQLVQSGAEVKKPGASVKVSCKASGYTFTDYYMHWVRQAPGQGLEWMGYFNPYNDYTRYAQKFQGRVTMTRDTSISTAYMELSSLRSDDTAVYYCARSDGYYDAMDYWGQGTTVTVSSSEPKSSDKTHTCPPCPAPEAAGAPSVFLFPPKPKDTLMISRTPEVTCVVVDVSHEDPEVKFNWYVDGVEVHNAKTKPREEQYNSTYRVVSVLTVLHQDWLNGKAYACAVSNKALPAPIEKTISKAKGQPREPQVYTLPPSRDELTKNQVSLTCLVKGFYPSDIAVEWESNGQPENNYKTTPPVLDSDGSFFLYSKLTVDKSRWQQGNVFSCSVMHEALHNHYTQKSLSLSPGQRHNNSSLNTGTQMAGHSPNSQVQLVESGGGVVQPGRSLRLSCKASGYTFTRSTMHWVRQAPGQGLEWIGYINPSSAYTNYNQKFKDRFTISADKSKSTAFLQMDSLRPEDTGVYFCARPQVHYDYNGFPYWGQGTPVTVSSGGGGSGGGGSGGGGSAQDIQMTQSPSSLSASVGDRVTMTCSASSSVSYMNWYQQKPGKAPKRWIYDSSKLASGVPARFSGSGSGTDYTLTISSLQPEDFATYYCQQWSRNPPTFGGGTKLQITSSS
notes: also called anti-PSMA x anti-CD3 bispecific polypeptide homodimer
Regarding B2, the “EC50 for RTCC” value in experiment [2] was determined as 0.0029 nM. Besides, the response in experiment [1] was half-maximal at 1.9 nM (EC50).

B3: TSC194 (huVL-VH#2 107-1A4 scFv-Fc-Cris7 scFv) (bispecific antibody)
chain: DIQMTQSPSAMSASVGDRVTITCRASKSISKYLAWFQQKPGKVPKLRIHSGSTLQSGVPSRFSGSGSGTEFTLTISSLQPEDFATYYCQQHIEYPWTFGQGTKVEIKRGGGGSGGGGSGGGGSQVQLVQSGAEVKKPGASVKVSCKASGYTFTDYYMHWVRQAPGQGLEWMGYFNPYNDYTRYAQKFQGRVTMTRDTSISTAYMELSSLRSDDTAVYYCARSDGYYDAMDYWGQGTTVTVSSSEPKSSDKTHTCPPCPAPEAAGAPSVFLFPPKPKDTLMISRTPEVTCVVVDVSHEDPEVKFNWYVDGVEVHNAKTKPREEQYNSTYRVVSVLTVLHQDWLNGKAYACAVSNKALPAPIEKTISKAKGQPREPQVYTLPPSRDELTKNQVSLTCLVKGFYPSDIAVEWESNGQPENNYKTTPPVLDSDGSFFLYSKLTVDKSRWQQGNVFSCSVMHEALHNHYTQKSLSLSPGQRHNNSSLNTGTQMAGHSPNSQVQLVQSGGGVVQPGRSLRLSCKASGYTFTRSTMHWVRQAPGKGLEWIGYINPSSAYTNYNQKFKDRFTISADKSKSTAFLQMDSLRPEDTGVYFCARPQVHYDYNGFPYWGQGTPVTVSSGGGGSGGGGSGGGGSAQDIQMTQSPSSLSASVGDRVTMTCSASSSVSYMNWYQQKPGKAPKRWIYDSSKLASGVPARFSGSGSGTDYTLTISSLQPEDFATYYCQQWSRNPPTFGGGTKLQITR
For the molecule B3, the “EC50 for RTCC” value in experiment [2] came to 0.0028 nM.

The term EC50 denotes the concentration at which the effect is half-maximal. High values mean a less potent agent, low ones a more potent agent.
